The assay addresses recombinant murine IL-12 (R&D Systems) (murine) (UniProt P43431). Nature of the assay: cell-based or functional assay.

In the case of “C17.8 (rat anti-mouse IL-12/IL-23p40, IgG2a) (antibody)”, the in vitro neutralization of IL-12 (times (against the anti-p35 mAb)) was 5.

The values are drawn from patent US7807471.
